Measured values reported in US20160185837A1, “GIP AND GLP-1 RECEPTOR DUAL-AGONISTS FOR THE TREATMENT OF DIABETES” (Medimmune Limited, priority 2013, published 2016).
Numbering of substitutions follows the chain as printed.

T1: human GIP receptor (human) (UniProt P48546)
T1 sequence (looked up): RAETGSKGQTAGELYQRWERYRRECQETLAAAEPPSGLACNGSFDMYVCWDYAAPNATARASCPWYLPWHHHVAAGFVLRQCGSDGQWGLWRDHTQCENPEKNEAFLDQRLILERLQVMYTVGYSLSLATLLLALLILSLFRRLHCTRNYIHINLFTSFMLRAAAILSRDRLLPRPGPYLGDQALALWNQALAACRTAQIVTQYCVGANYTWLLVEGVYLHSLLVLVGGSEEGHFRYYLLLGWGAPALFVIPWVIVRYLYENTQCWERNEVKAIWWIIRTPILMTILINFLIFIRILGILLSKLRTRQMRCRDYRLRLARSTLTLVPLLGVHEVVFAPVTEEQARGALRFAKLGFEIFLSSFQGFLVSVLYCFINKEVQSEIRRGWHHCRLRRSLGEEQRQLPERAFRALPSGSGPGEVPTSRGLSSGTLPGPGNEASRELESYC

T2: mouse GIP receptor (mouse) (UniProt Q0P543)
T2 sequence (looked up): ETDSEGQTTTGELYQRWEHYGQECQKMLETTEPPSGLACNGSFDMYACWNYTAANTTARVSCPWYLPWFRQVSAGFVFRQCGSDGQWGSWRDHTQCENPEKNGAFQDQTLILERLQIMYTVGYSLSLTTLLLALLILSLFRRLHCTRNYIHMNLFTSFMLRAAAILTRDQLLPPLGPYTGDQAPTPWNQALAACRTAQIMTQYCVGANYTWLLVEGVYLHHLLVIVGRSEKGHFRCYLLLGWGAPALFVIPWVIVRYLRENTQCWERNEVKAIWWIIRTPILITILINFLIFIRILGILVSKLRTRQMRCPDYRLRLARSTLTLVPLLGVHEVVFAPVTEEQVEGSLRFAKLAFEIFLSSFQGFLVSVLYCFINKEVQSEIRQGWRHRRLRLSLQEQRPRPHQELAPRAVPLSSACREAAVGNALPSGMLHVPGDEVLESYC

T3: rat GIP receptor (rat) (UniProt P43219)
T3 sequence (looked up): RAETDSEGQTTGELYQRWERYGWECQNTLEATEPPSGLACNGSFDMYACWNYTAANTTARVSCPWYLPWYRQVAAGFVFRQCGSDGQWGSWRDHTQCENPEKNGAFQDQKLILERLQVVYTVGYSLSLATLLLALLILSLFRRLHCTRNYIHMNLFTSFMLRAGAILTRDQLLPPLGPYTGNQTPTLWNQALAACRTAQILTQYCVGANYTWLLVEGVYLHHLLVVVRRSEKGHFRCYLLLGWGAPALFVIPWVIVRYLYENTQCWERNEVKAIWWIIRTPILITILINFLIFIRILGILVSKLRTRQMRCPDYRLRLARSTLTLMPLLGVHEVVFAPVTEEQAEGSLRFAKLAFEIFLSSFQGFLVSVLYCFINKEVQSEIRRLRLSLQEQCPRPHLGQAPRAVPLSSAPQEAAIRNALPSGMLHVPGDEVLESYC

B1: IP389 (Fc fusion)
chain: YSEGTFISDYSIAMDKIHQQDFVNWLLAQKGGGGGSGGGGSGGGGSGGGGSGGGGSGGGGSGGGGSACPPC
B2: IP247 (Fc fusion)
chain: YSEGTFTSDYSKLLEKIHQQLFIEWLVKGPAAAGGSGSTASSGSGSATGGGGAATHTCPPCPAPEF
B3: IP386 (Fc fusion)
chain: YSEGTFISDYSIAMDKIHQQDFVNWLLAQKGGGGGSGGGGSGGGGSGGGGSACPPC
B4: IP402 (Fc fusion)
chain: YSEGTFISDYSIAMDKIHQQDFVNWLLAQKGSGGGGSGGGGSGGGGSGGGGSGGGGSGGGGSGGGGSACPPC
B5: IP344 (Fc fusion)
chain: YSEGTFISDYSIAMDKIHQQDFVNWLLAQKGGGGGSGGGGSGGGGSGGGGSGGGGSA
B6: IP209 (Fc fusion)
chain: YSEGTFTSDYSSYMERQAIDEFIAWLLKGGAAAGGSGSTASSGSGSATGGGGAATHTCPPCPAPEF
B7: IP336 (Fc fusion)
chain: YSEGTFISDYSIAMDKIHQQDFVNWLLAQKGGGGGSGGGGSGGGGSGGGGSGGGGSGGGGSA
B8: IP299 (Fc fusion)
chain: YSEGTFISDYSKLLEEEAVRDFVEWLKAGGGGGGGSGGGGSGGGGSGGGGSATHTCPPC
B9: IP342 (Fc fusion)
chain: YSEGTFTSDYSAAAEAAAAAAFAAWLAAAAGGGGGSGGGGSGGGGSGGGGSACPPC
B10: IP335 (Fc fusion)
chain: YSEGTFISDYSIAMDKIHQQDFVNWLLAQKGGGGGSGGGGSGGGGSGGGGSA
B11: IP321 (Fc fusion)
chain: YSEGTFISDYSIAMDKIHQQDFVNWLLAGGAAAGGSGSTASSGSGSATGGGGAATHTCPPC
B12: IP351 (Fc fusion)
chain: YSEGTFISDYSIAMDKIHQQDFVNWLLAQKPSSGAPPPSGGGGSGGGGSGGGGSGGGGSACPPC
B13: IP337 (Fc fusion)
chain: YSEGTFISDYSIAMDKIHQQDFVNWLLAQKGGGGGSGGGGSGGGGSGGGGSGGGGSGGGGSGGGGSA
B14: IP392 (Fc fusion)
chain: YSEGTFISDYSIAMDKIHQQDFVNWLLAQKGAANDWKHNITQGGGGSGGGGSGGGGSGGGGSGGGGSGGGGSACPPC
B15: IP398 (Fc fusion)
chain: B14 chain with A32K, A33K
B16: IP387 (Fc fusion)
chain: YSEGTFISDYSIAMDKIHQQDFVNWLLAQKGGGGGSGGGGSGGGGSGGGGSGGGGSGGGGSGGGGSGGGGSACPPC
B17: IP275 (Fc fusion)
chain: YSEGTFTSDYSKLLEKEAQRLFIEWLLKGPGGGGGSGGGGSGGGGSGGGGSATHTCPPC
B18: IP289 (Fc fusion)
chain: B17 chain with Q19E
B19: IP338 (Fc fusion)
chain: YSEGTFISDYSIAMDKIHQQDFVNWLLAQKGGGGGSGGGGSGGGGSGGGGSGGGGSGGGGSGGGGSGGGGSAN
B20: IP333 (Fc fusion)
chain: YSEGTFISDYSIALAAAAQQDFVNWLLKGGGGGGGSGGGGSGGGGSGGGGSGGGGSGGGGSA
B21: IP334 (Fc fusion)
chain: B20 chain with I7T

The binders below were run against T1, human GIP receptor (human) (assay: cell-based or functional assay).

cAMP EC50 [pM] | cAMP EC50, Batch 2 [pM] | Binder
2.7 | – | B1
19 | – | B2
3.4 | – | B3
38 | – | B4
5.3 | – | B5
58 | 28 | B6
5 | – | B7
21 | – | B8
4700 | – | B9
5.8 | – | B10
9.6 | – | B11
3.6 | – | B12
6.2 | – | B13
2.6 | – | B14
3.7 | – | B15
4.5 | – | B16
8.7 | – | B17
10 | – | B18
5.2 | – | B19
8.6 | – | B20
29 | – | B21

These binders were tested against human GLP-1 receptor (human) (UniProt P43220) (assay: cell-based or functional assay).
Chain of human GLP-1 receptor (human) (P43220 24-463): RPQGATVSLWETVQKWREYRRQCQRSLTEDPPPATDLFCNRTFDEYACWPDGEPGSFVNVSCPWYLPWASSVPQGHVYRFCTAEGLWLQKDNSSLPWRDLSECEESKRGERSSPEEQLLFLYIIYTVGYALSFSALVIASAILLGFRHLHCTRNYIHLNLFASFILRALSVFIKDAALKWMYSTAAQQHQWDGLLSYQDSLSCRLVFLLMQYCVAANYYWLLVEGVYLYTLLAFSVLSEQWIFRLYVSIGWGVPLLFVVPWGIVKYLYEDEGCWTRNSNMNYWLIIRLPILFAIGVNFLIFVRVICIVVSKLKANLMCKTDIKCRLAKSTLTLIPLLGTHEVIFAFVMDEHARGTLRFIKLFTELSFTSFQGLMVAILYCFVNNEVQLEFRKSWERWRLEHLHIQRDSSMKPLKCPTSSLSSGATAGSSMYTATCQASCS

cAMP EC50 [nM] | cAMP EC50, Batch 2 [pM] | Binder
65 | – | B1
63 | – | B2
> 9130 | – | B3
31 | – | B4
> 8550 | – | B5
0.23 | 200 | B6
> 4510 | – | B7
> 3640 | – | B8
75 | – | B9
> 5480 | – | B10
72 | – | B11
110 | – | B12
> 2300 | – | B13
2800 | – | B14
9500 | – | B15
370 | – | B16
0.92 | – | B17
3.4 | – | B18
> 1890 | – | B19
> 1080 | – | B20
130 | – | B21

These binders were tested against human glucagon receptor (human) (UniProt P47871) (assay: cell-based or functional assay).
Chain of human glucagon receptor (human) (P47871 26-477): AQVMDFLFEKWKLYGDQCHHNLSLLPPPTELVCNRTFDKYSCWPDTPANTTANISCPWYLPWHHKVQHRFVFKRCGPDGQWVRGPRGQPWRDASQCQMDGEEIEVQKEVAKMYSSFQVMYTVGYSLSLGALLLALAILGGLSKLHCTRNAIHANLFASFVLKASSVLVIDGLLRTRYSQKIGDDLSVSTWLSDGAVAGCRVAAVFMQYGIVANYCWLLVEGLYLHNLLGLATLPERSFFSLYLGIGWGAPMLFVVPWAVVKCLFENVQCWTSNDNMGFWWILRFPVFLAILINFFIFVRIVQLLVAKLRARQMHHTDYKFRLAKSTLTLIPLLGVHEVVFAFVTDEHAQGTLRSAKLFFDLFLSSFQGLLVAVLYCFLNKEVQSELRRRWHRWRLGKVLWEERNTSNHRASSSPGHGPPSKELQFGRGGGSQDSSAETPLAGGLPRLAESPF

cAMP EC50 [nM] | cAMP EC50, Batch 2 [µM] | Binder
> 269 | – | B1
> 420 | – | B2
540 | – | B3
200 | – | B4
200 | – | B5
– | > 6.27 | B6
200 | – | B7
53 | – | B8
> 3560 | – | B9
280 | – | B10
24 | – | B11
130 | – | B12
200 | – | B13
530 | – | B14
1600 | – | B15
220 | – | B16
230 | – | B17
240 | – | B18
190 | – | B19
> 1080 | – | B20
> 455 | – | B21

Each binder was assayed against T2, mouse GIP receptor (mouse) (assay: cell-based or functional assay).

cAMP EC50 [pM] | cAMP EC50, Batch 2 [µM] | Binder
17 | – | B1
2300 | – | B2
30 | – | B3
33 | – | B4
11 | – | B5
4900 | > 6.3 | B6
12 | – | B7
210000 | – | B8
43000 | – | B9
20 | – | B10
17 | – | B11
9.8 | – | B12
13 | – | B13
31 | – | B14
12 | – | B15
19 | – | B16
260 | – | B17
440 | – | B18
12 | – | B19
19 | – | B20
300 | – | B21

The binders below were run against mouse GLP-1 receptor (mouse) (UniProt O35659) (assay: cell-based or functional assay).
Chain of mouse GLP-1 receptor (mouse) (O35659 22-463): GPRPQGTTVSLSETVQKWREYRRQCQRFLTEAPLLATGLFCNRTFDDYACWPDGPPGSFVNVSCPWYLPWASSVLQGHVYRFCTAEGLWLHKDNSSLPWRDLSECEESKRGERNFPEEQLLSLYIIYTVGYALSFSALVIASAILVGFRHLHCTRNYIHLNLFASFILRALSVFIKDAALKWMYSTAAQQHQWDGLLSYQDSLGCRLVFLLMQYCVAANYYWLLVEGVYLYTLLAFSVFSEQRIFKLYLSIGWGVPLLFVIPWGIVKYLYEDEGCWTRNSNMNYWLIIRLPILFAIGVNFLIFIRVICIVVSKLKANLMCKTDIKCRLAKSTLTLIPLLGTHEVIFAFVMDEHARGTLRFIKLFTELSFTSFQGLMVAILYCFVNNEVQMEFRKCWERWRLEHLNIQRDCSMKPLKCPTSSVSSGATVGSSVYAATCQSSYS

cAMP EC50 [nM] | cAMP EC50, Batch 2 [nM] | Binder
1300 | – | B1
280 | – | B2
> 16600 | – | B3
850 | – | B4
> 8550 | – | B5
0.84 | 1.6 | B6
> 2260 | – | B7
> 3640 | – | B8
670 | – | B9
> 2740 | – | B10
330 | – | B11
820 | – | B12
> 1150 | – | B13
> 17100 | – | B14
> 17200 | – | B15
> 1470 | – | B16
1.7 | – | B17
6.8 | – | B18
> 945 | – | B19
> 1080 | – | B20
> 455 | – | B21

Each binder was assayed against T3, rat GIP receptor (rat) (assay: cell-based or functional assay).

cAMP EC50 [pM] | cAMP EC50, Batch 2 [nM] | Binder
7.2 | – | B1
30 | – | B2
8.5 | – | B3
6.8 | – | B4
6.2 | – | B5
220 | 1.3 | B6
4.7 | – | B7
110 | – | B8
5100 | – | B9
6.7 | – | B10
7.9 | – | B11
6.3 | – | B12
5.2 | – | B13
7.6 | – | B14
5.6 | – | B15
7.5 | – | B16
14 | – | B17
20 | – | B18
5 | – | B19
15 | – | B20
56 | – | B21

These binders were tested against rat GLP-1 receptor (rat) (UniProt P32301) (assay: cell-based or functional assay).
Chain of rat GLP-1 receptor (rat) (P32301 22-463): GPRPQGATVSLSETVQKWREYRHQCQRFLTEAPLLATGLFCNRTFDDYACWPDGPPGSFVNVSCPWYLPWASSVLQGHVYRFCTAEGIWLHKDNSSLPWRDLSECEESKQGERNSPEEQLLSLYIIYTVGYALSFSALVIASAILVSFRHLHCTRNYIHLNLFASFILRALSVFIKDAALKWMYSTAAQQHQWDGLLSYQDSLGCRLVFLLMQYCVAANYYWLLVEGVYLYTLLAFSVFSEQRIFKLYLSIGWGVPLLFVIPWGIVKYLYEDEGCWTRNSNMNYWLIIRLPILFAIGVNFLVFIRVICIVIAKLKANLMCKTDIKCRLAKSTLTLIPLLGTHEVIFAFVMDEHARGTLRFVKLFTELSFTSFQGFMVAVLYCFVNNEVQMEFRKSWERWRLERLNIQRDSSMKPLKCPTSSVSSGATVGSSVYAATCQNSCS

cAMP EC50 [nM] | cAMP EC50, Batch 2 [pM] | Binder
9.9 | – | B1
11 | – | B2
> 16600 | – | B3
11 | – | B4
> 8550 | – | B5
0.075 | 91 | B6
> 2260 | – | B7
19 | – | B8
23 | – | B9
> 2740 | – | B10
22 | – | B11
210 | – | B12
> 1150 | – | B13
720 | – | B14
14000 | – | B15
110 | – | B16
0.062 | – | B17
0.23 | – | B18
> 945 | – | B19
430 | – | B20
120 | – | B21
